The values that follow come from patent publication US20240287172A1 (SCIRHOM, published 2024).

Assay [1] has as its target T1, hiR2-FL-G546A-T7 (human, UniProt Q6PJF5 1-856).
T1 sequence: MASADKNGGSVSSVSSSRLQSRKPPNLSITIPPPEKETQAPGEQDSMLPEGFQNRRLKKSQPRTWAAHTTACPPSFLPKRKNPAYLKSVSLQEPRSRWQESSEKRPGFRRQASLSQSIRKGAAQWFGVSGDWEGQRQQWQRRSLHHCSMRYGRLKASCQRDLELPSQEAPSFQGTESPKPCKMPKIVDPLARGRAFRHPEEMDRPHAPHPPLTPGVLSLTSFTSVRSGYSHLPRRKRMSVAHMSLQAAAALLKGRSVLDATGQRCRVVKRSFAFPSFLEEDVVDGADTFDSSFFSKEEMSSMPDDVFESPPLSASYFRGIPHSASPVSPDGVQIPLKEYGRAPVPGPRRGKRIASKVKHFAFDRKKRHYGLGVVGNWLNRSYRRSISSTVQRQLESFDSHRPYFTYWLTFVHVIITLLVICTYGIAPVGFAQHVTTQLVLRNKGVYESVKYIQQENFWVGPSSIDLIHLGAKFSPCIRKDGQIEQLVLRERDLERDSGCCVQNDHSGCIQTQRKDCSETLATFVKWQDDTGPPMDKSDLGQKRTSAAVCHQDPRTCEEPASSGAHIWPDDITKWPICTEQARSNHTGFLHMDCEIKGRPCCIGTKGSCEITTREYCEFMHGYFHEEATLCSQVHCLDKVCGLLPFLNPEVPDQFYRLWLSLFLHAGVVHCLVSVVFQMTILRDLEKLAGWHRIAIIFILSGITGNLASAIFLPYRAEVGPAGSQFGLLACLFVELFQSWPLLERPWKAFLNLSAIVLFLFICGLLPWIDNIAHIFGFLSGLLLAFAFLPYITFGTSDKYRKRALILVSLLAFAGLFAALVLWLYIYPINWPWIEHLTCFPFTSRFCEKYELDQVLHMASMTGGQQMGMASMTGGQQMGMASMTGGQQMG
In words: FACS, MEF-DKO cells, 3 µg/ml. An excerpt: (§1) In brief, immortalized MEF-DKO-hiR2-FL-WT-T7 cells, MEF-DKO-miR2-FL-WT-T7 cells and MEF-DKO-hiR2-FL-R441K-T7, MEF-DKO-hiR2-FL-K443R-T7, MEF-DKO-hiR2-FL-V459I-T7, MEF-DKO-hiR2-FL-G481Q-T7, MEF-DKO-hiR2-FL-L488R-T7, MEF-DKO-hiR2-FL-L493I-T7, MEF-DKO-hiR2-FL-D496T-T7, MEF-DKO-hiR2-FL-H505R-T7, MEF-DKO-hiR2-FL-Q512L-T7, MEF-DKO-hiR2-FL- R513K-T7, MEF-DKO-hiR2-FL-D528N-T7, MEF-DKO-hiR2-FL-P533-T7, MEF-DKO-hiR2-FL-M534S-T7, MEF-DKO-hiR2-FL-G540S-T7, MEF-DKO-hiR2-FL-R543Q-T7, MEF-DKO-hiR2-FL-T544P-T7, MEF-DKO-hiR2-FL-G546A-T7, MEF-DKO-hiR2-FL-A547V-T7, MEF-DKO-hiR2-FL-R582Q-T7, MEF-DKO-hiR2-FL-F588L-T7, MEF-DKO-hiR2-FL-M591I-T7, MEF-DKO-hiR2-FL-E594K-T7, MEF-DKO-hiR2-FL-E626D-T7, MEF-DKO-hiR2-FL-L657I-T7, and MEF-DKO-hiR2-FL-H835Y-T7 cells were harvested with 10 mM EDTA in PBS, washed and resuspended in FACS buffer (PBS, 3% FBS, 0.05% sodium azide), and seeded in Nunc U-bottom 96-well plates (Thermo Fisher Scientific, USA) at approximately 3×10⁵ cells per well.
(§2) To pellet cells and remove supernatants, the plates were centrifuged at 1,500 rpm and 4° C. for 3 minutes. For primary staining, cells were resuspended in 100 μl per well of either FACS buffer alone (controls) or the purified antibodies 3, 5, 16, 22, 34, 42, 43, 44, 48, and 50 of the invention at 3 μg/ml FACS buffer and incubated on ice for 1 hour. Afterwards, plates were centrifuged at 1,500 rpm and 4° C. for 3 minutes and washed twice with 200 μl per well of FACS buffer. For secondary staining, cells were spun down and resuspended in 100 μl per well of PE-conjugated goat anti-mouse IgG F(ab′)2 detection fragment (Dianova, Germany) diluted 1:100 in FACS buffer. Protected from light, the cell suspensions were incubated on ice for 1 hour. Plates were then centrifuged at 1,500 rpm and 4° C. for 3 minutes and washed three times with 200 μl per well of FACS buffer. Finally, cells were resuspended in 150 μl per well of FACS buffer and analyzed using a BD Accuri™ C6 Plus flow cytometer (Becton Dickinson, Germany).

For assay [2], the target named is T2, hiR2-FL-P533-T7 (deletion of P533) (human, UniProt Q6PJF5 1-856).
T2 construct: single residue deletion, not a substitution; on MEF-DKO cells
T2 sequence: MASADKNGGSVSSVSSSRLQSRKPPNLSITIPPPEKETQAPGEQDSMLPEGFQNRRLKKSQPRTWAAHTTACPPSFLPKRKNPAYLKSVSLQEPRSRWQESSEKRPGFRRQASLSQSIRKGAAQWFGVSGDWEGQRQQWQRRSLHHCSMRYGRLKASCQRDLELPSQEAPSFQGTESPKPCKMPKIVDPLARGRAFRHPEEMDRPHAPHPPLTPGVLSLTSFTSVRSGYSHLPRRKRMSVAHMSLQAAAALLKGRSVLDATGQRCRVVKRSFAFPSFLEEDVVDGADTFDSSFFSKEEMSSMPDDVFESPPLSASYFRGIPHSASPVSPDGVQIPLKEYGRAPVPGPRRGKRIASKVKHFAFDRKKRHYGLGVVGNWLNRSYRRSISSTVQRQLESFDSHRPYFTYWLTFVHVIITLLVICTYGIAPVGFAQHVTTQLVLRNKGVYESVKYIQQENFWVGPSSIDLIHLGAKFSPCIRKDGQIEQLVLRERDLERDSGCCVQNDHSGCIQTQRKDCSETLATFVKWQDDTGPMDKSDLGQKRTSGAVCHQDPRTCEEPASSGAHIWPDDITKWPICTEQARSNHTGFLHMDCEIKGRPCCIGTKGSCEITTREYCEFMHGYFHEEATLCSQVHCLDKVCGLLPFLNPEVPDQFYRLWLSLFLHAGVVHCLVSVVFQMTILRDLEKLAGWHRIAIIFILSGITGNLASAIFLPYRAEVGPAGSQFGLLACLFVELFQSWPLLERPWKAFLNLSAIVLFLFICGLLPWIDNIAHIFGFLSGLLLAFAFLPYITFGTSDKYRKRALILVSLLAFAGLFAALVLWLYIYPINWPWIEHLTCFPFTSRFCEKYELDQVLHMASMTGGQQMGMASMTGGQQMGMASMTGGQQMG
In words: FACS, MEF-DKO cells, 3 µg/ml.
From the text: as §1, §2

B1: antibody 50 (antibody, V domains shown)
VH: QVQLQQSGAELVRPGASVKVSCKASGYAFSNYLIEWVKQRPGQGLEWIGVINPGSGFTKYNEKFKGKATLTADKSSSTAYMQLSSLTSEDSAVYFCARGLYRAMDYWGQGTSVTVSS
VL: DIQMTQSPASQSASLGESVTITCLASQTIGTWLAWYQQKPGKSPQLLIYAAASLADGVPSRFSGGGSGTKFSFKISSLQAEDFVNYYCQQIYSTPYTFGGGTKLEIK
notes: mouse IgG, kappa light chain; also called clone #50; purified antibody 50
Turning to B1, the “loss of binding vs wild type” value in assay [1] is not below 30%.

B2: antibody 16 (antibody, V domains shown)
VH: QVTLKESGPGILQPSQTLSLTCSFSGFSLSTFALGVGWIRQPSGRGLEWLAHIWWDDDKYYNPALKSRLTISKDTSKNHVFLKIANVDTADTATYYCARITTYYYGMDYWGQGTSVTVSS
VL: DIVLSQSPATLSVTPGDSVSLFCRASQSIGNHLHWYQQESHASPRLLIKYASQSISGIPSRFSGSGSGTDFTLSINSVETEDFGMYFCQQSYNWPLTFGAGTKLELK
notes: mouse IgG, kappa light chain; also called clone #16; purified antibody 16
With B2, the “loss of binding vs wild type” value in assay [2] was not below 95%.

B3: antibody 3 (antibody, V domains shown)
VH: QVTLKESGPGILQPSQTLSLTCSFSGFSLTTFAMGIGWVRQPSGKGLEWLAHIWWDGEKYNNPVLKSRLTISKDTSKNQVFLRIANVDTPDTATYYCARISSIYYIIDNWGQGTSVTVSS
VL: DIVLTQSPATLSVTPGHSVSLSCRASQSISNNLHWYQKKSHESPRLLIKYVSQSISGIPSRFSGSGSGTDFTLSINSVETEDFGMYFCQQSYNWPLTFGAGTKLELK
notes: mouse IgG, kappa light chain; also called clone #3; purified antibody 3
B3: the “loss of binding vs wild type” value in assay [2] is not below 95%; in assay [1], not below 30%.

B4: antibody 34 (antibody, V domains shown)
VH: QVTLKESGPGILQPSQTLSLTCSFSGFSLSTFSLGVGWIRQSSGKGLEWLAHIWWDDEKYYNPALKSRLTISKDTSKNQVFLKIANVDAADTATYYCARAYYSKSYYALDYWGQGTSVTVSS
VL: DIQMTQSPSSLSASLGERVSLTCRASQEISGYLSWLQQKPDGTIKRLIYAASTLDSGVPKRFSGSRSGSDYSLAISSLESEDFADYYCLQYANFPFTFGSGTKLEIK
notes: mouse IgG, kappa light chain; also called clone #34; purified antibody 34
For B4, the figures for the “loss of binding vs wild type” value in assay [2] and in assay [1] were not below 95% and not below 60%, respectively.

B5: antibody 5 (antibody, V domains shown)
VH: QVTLKESGPGILQPSQTLSLTCSFSGFSLSTFGMGVGWIRQPSGKGLEWLAHIWWDDEKYYNSALKSRLTISKATSKNQAFLKIANVDTADTATYYCARISNYGSNYWYFNVWGTGTTVTVSS
VL: QVVLTQSPALMSASPGEKVTMTCSAGSSVSCMYWYQQKPGSSPRVLIYDTSNLASGVPARFTGSGSGTSYSLTISRMEAEDAASYYCQQWNSYPLTFGAGTKLELK
notes: mouse IgG, kappa light chain; also called clone #5; purified antibody 5
B5: the “loss of binding vs wild type” value in assay [2] and in assay [1] was not below 95% throughout.

B6: antibody 43 (antibody, V domains shown)
VH: QVALKESGPGILQPSQTLSLTCSFSGFSLSTFGMGVGWIRQSSGKGLEWLANIWWDDDKYYNPALKSRLTISKDASKNQAFLKIANVDTADTATYYCARIGNYGSNYWYFDVWGTGTTVTVSS
VL: QIVLTQSPAIMSASPGERVTMTCSANSRISYMYWYQQKPGSSPRLLIYDTSNLASGVPVRFSGSGSGTSYSLTISRMEAEDAATYNCQQWSSYPLTFGAGTKLELK
notes: mouse IgG, kappa light chain; also called clone #43; purified antibody 43
For B6, the “loss of binding vs wild type” value in assay [2] was not below 95%; in assay [1] it was not below 60%.

B7: antibody 42 (antibody, V domains shown)
VH: QVTLKESGPGILQPSQTLSLTCSLSGFSLSTFGRGVGWIRQPSGKGLEWLAHIWWDDEKYYNPALKSRLTISKDTSKNQVFLRIANVDTADTATYYCARIQNYGSNYWYFDVWGTGTTVTVSS
VL: LIVLTQSPAIMSASPGEKVTMTCGATSRISYMFWYQQKPGSSPRVLIYDTSNLASGVPVRFSGSGSGTSYSLTISRVEAEDVATYYCQQWNSYPLTFGAGTKLELK
notes: mouse IgG, kappa light chain; also called clone #42; purified antibody 42
In the case of B7, the “loss of binding vs wild type” value in assay [2] is not below 95%; in assay [1], not below 60%.

B8: antibody 44 (antibody, V domains shown)
VH: QVTLKESGPGILQPSQTLSLTCSFSGFSLSTFGMGVGWIRQPSEKGLEWLAHIWWDDDKYYNPALKSRLTISKDTSKNQIFLKITNVDTAETATYYCSRIGNYGSNYWYFDVWGTGTTVTVSS
VL: QIVLTQSPAVMSASPGEKVTMTCTASSSVYYMYWYQQTPGSSPRLLIYDTSNLASGVPVRFSGSGSGTSYSLTISRMEAEDAATYYCQQWNTYPLTFGAGTKLELK
notes: mouse IgG, kappa light chain; also called clone #44; purified antibody 44
With B8, the “loss of binding vs wild type” value in assay [2] was not below 95%; in assay [1], not below 60%.

B9: antibody 22 (antibody, V domains shown)
VH: QVTLKESGPGILQPSQTLSLTCSFSGFSLSTFGMGVGWIRQPSGKGLEWLAHIWWDDEKYYNSALKSRLTISKATSKNQVFLKIANVDTADTATYYCARISNYGSNYWYFNVWGTGTTVTVSS
VL: QVVLTQSPALMSASPGEKVTMTCSAGSSVSYMYWYQQKPGSSPRVLIYDTSNLASGVPARFTGSGSGTSYSLTISRMEAEDAATYYCQQWNSYPLTFGAGTKLELK
notes: mouse IgG, kappa light chain; also called clone #22; purified antibody 22
As to B9, the “loss of binding vs wild type” value was not below 95% in assay [2] and not below 30% in assay [1].
